{
  "source": "patent US20090047262",
  "key": {"[1]": {"system": "T1, FLAG epitope-tagged CIITA IF1 protein (f:CIITA1)", "T1 sequence": "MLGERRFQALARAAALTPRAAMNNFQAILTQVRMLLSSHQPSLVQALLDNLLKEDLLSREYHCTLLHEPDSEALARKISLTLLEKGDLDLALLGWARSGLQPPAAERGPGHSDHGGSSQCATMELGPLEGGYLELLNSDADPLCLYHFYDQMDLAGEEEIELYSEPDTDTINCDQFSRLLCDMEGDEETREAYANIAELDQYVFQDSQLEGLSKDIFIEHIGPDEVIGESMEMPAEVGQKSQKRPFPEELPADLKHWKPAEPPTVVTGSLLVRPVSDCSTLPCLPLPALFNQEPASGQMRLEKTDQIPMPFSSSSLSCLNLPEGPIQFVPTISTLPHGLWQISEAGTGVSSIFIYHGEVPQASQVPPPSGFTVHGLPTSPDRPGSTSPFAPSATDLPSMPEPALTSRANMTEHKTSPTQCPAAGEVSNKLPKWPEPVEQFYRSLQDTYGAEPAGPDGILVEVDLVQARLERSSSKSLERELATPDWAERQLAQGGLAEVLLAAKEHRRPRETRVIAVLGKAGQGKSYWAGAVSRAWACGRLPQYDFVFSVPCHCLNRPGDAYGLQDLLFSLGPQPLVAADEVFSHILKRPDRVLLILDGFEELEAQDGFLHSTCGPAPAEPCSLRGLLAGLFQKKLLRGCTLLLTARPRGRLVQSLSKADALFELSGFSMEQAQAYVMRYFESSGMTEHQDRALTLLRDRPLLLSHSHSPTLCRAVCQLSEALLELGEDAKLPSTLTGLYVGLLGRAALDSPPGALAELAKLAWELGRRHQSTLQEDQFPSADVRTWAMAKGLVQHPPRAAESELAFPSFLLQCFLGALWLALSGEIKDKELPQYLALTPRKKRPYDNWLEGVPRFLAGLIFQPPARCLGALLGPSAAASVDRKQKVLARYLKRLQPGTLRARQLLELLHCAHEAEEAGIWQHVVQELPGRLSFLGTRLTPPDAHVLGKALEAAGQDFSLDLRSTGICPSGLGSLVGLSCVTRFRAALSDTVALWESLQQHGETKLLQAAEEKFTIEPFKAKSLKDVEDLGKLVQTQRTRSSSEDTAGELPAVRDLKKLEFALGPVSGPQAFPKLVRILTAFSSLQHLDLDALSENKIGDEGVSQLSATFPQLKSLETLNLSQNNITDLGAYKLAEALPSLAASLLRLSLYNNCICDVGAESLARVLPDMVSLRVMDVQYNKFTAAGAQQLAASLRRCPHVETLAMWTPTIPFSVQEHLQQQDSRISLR"}, "[2]": {"system": "mutant f:CIITA1(S357A) protein (FLAG epitope-tagged CIITA isoform 1 with serine 357 changed to alanine)"}},
  "data": [
    {"substance": "Erk1/2 kinase", "values": [
      {"measurement": "in vitro kinase assay, appearance of the upper (phosphorylated) band", "setting": "[1]", "result": "as indicated by the appearance of the upper band, Erk1/2 phosphorylated f:CIITA1 protein"},
      {"measurement": "in vitro kinase assay, appearance of the upper (phosphorylated) band", "setting": "[2]", "result": "Erk1/2 did not phosphorylate the mutant f:CIITA1(S357A) protein, which was confirmed by the absence of the upper band"}
    ]}
  ]
}
